The record followed here is US20060121483A1, “Methods for detecting teneurin signalling and related screening methods” (priority 2002, published 2006).

For this assay, the target named is TEY (teneurin-2 construct: Transmembrane, EGF-like and YD-repeats; entire long form of the extracellular domain, without cytoplasmic domain) (chicken) (UniProt Q9DER5). Put plainly: cell-based or functional assay.

“BDAD-CTEY (GAL4 binding domain and NFkB activation domain fused to full length teneurin-2) (from UniProt P04386 1-147; Q9DER5 1-2802)” showed a Luciferase activity (GAL4 reporter; cleavage of the BDAD-teneurin-2 fusion) of 6 fold.
